{
  "source": "patent US20240002490A1",
  "about": "(SCHOLAR ROCK, published 2024)",
  "binders": {"B1": {"name": "Apitegromab (antibody, human IgG4 S228P, lambda, V domains shown)", "VH": "QVQLVESGGGVVQPGRSLRLSCAASGFTFSSYGMHWVRQAPGKGLEWVAVISYDGSNKYYADSVKGRFTISRDNSKNTLYLQMNSLRAEDTAVYYCARDLLVRFLEWSHYYGMDVWGQGTTVTVSS", "VL": "not shown", "notes": "Fully human monoclonal IgG4/lambda; also called SRK-015; anti-pro/latent myostatin antibody"}},
  "key": {"rat promyostatin [1]": {"biological_target": "T1, rat promyostatin (rat, UniProt O35312 25-376)", "assay": "cell-based or functional assay"}, "[2]": {"biological_target": "T2, cynomolgus monkey promyostatin (cynomolgus monkey, UniProt Q95J86 19-375)", "assay": "cell-based or functional assay"}, "rat promyostatin [3]": {"biological_target": "T1, rat promyostatin", "assay": "biolayer interferometry (ForteBio Octet QKe), apitegromab on human Fc capture tips, promyostatin in solution, 1:1 global fit, single concentration", "method": "(§1) All baseline steps, loading of biotinylated antigens, and antibody association and dissociation steps were performed in 1× kinetics buffer containing PBS pH 74 with 0.002% Tween 20 and 0.01% BSA. Association proceeded for 300 seconds and dissociations were then performed in 1× kinetics buffer for at least 600 seconds. Data analysis was performed on FortèBio Data Analysis software version 8.2. A 1:1 global fitting model considering both association and dissociation was then utilized for the single concentration KD determination for each antigen antibody/construct pair."}, "[4]": {"biological_target": "T2, cynomolgus monkey promyostatin", "assay": "biolayer interferometry (ForteBio Octet QKe), apitegromab on human Fc capture tips, promyostatin in solution, 1:1 global fit, single concentration", "method": "as §1"}},
  "data": [
    {"binder": "B1", "values": [
      {"measurement": "IC50 of inhibition of proteolytic activation of promyostatin (SMAD-responsive luciferase reporter cells)", "setting": "rat promyostatin [1]", "value": 0.153, "unit": "µM"},
      {"measurement": "IC50 of inhibition of proteolytic activation of promyostatin (SMAD-responsive luciferase reporter cells)", "setting": "[2]", "value": 0.584, "unit": "µM"},
      {"measurement": "Kd", "setting": "rat promyostatin [3]", "value": 0.002, "unit": "µM"},
      {"measurement": "Kd", "setting": "[4]", "value": 0.00486, "unit": "µM"}
    ]}
  ]
}
